# B1: L3-1Y: anti-c-Met antibody: heavy chain variable region of huAbF46-H4-A1, human IgG2 hinge and IgG2 constant region, kappa light chain (antibody)
# heavy: EVQLVESGGGLVQPGGSLRLSCAASGFTFTDYYMSWVRQAPGKGLEWLGFIRNKANGYTTEYSASVKGRFTISRDNSKNTLYLQMNSLRAEDTAVYYCARDNWFAYWGQGTLVTVSSASTKGPSVFPLAPCSRSTSESTAALGCLVKDYFPEPVTVSWNSGALTSGVHTFPAVLQSSGLYSLSSVVTVPSSNFGTQTYTCNVDHKPSNTKVDKTVERKCCVECPPCPAPPVAGPSVFLFPPKPKDTLMISRTPEVTCVVVDVSHEDPEVQFNWYVDGVEVHNAKTKPREEQFNSTFRVVSVLTVVHQDWLNGKEYKCKVSNKGLPAPIEKTISKTKGQPREPQVYTLPPSREEMTKNQVSLTCLVKGFYPSDIAVEWESNGQPENNYKTTPPMLDSDGSFFLYSKLTVDKSRWQQGNVFSCSVMHEALHNHYTQKSLSLSPGK
# light: DIQMTQSPSSLSASVGDRVTITCKSSQSLLASGNQNNYLAWYQQKPGKAPKMLIIWASTRVSGVPSRFSGSGSGTDFTLTISSLQPEDFATYYCQQSYSRPYTFGQGTKVEIKRTVAAPSVFIFPPSDEQLKSGTASVVCLLNNFYPREAKVQWKVDNALQSGNSQESVTEQDSKDSTYSLSSTLTLSKADYEKHKVYACEVTHQGLSSPVTKSFNRGEC
# Assays:
# [1] = system: MKN45 gastric cancer cells; experiment: Tumor xenograft model of gastric cancer cell line MKN45; format: in vivo, BALB/c nude mice; settings: sorafenib 3.3 mg/kg P.O. once a day, L3-1Y 1 mg/kg I.V. once a week, day 21
# Method: (§1) To verify the in vivo effect of the co-administration on tumor growth, a tumor xenograft model using male 5-6 week-old BALB/c nude mice (Pharmalegacy, China) was prepared. The mice were adapted at least one week before inoculation of tumor cells.
# (§2) Then, the mice were anesthetized with 1-2% isofurane, and MKN45 gastric cancer cells (JCRB, JCRB0254) were subcutaneously injected into the right flank of the mice in the amount of 5×10^6 cells per mouse. 7 days after, when the average size of the tumor reaches 50 mm^3 or more, the mice were grouped as follows: a group treated with sorafenib (3.3 mg/kg, P.O., once a day), a group treated with L3-1Y (1 mg/kg, I.V., once a week), a group co-treated with L3-1Y (1 mg/kg, I.V., once a week) and sorafenib (3.3 mg/kg, P.O., once a day), and a group (control) treated with vehicle (PBS 0.2 ml, I.V., once a week). Each group consisted of 10 mice.
# (§3) The experiment was performed for 4 weeks in total, and tumor size and body weight of the mice were measured twice a week. The tumor volume (V) was calculated by the following formula: V (mm^3)={length of long axis (mm)×(length of short axis (mm))^2}/2.
# HT29 colon cancer cells [2] = experiment: Tumor xenograft model of colon cancer cell line HT29; format: in vivo, BALB/c nude mice; settings: for Tumor Inhibition Rate at 21st day (%; compared to vehicle-treated group (0%)): sorafenib 3.3 mg/kg P.O. once a day, L3-1Y 1 mg/kg I.V. once a week, day 21
# Method: as §1
# as §2, with “and HT29 colon” for “and MKN45 gastric”, “cells I(ATCC, HTB-38)” for “cells (JCRB, JCRB0254)”, “mice at” for “mice in”, “week).” for “week). Each group consisted of 10 mice.”
# as §3
# [3] = system: MKN45 gastric cancer cells; experiment: Cell growth inhibition in MKN45 gastric cancer cell line (CellTiter Glo); format: cell-based
# Method: In particular, RPMI1640 medium (GIBCO) containing 10% FBS was added to a 96 well plate. MKN45 gastric cancer cells (JCRB, JCRB0254) were seeded thereon in the amount of 5,000 cells/well, and incubated overnight at 37° C. After 24 hours (the next day), the incubated cells were treated with (a) L3-1Y (Reference Example 1) alone or (b) L3-1Y and sorafenib. For the single treatment of L3-1Y alone, the concentration of L3-1Y was 0 μg/mL, 0.016 μg/mL, 0.08 μg/mL, 0.4 μg/mL, or 2 μg/mL. For the co-administration of L3-1Y and sorafenib, the concentration of sorafenib was fixed at 4 μM, which is a concentration of IC30 in MKN45 cell line, and the concentration of L3-1Y was 0 μg/mL, 0.016 μg/mL, 0.08 μg/mL, 0.4 μg/mL, or 2 μg/mL.
# (§4) At 72 hours after the single treatment or the co-treatment, 100 μL of CellTiter Glo solution (Promega, G7572) was added to each well, and left for 30 minutes at room temperature. The cell number was counted by emission signal, and the emission signal was recorded using Envision 2104 Multi-label Reader (Perkin Elmer).
# EBC1 lung cancer cells = experiment: Cell growth inhibition in EBC1 lung cancer cell line (CellTiter Glo); format: cell-based; settings: L3-1Y 0-2 μg/mL alone, sorafenib 4 μM alone, or both; 72 hours
# Method: (§5) In particular, RPMI1640 medium (GIBCO) containing 10% FBS added to a 96 well plate. EBC1 lung cancer cells (JCRB, JCRB0820) were seeded thereon in the amount of 5,000 cells/well, and incubated overnight at 37° C. After 24 hours (the next day), the incubated cells were treated with (a) L3-1Y (Reference Example 1) alone or (b) L3-1Y and sorafenib. For the single treatment of L3-1Y alone, the concentration of L3-1Y was 0 μg/mL, 0.016 μg/mL, 0.08 μg/mL, 0.4 μg/mL, or 2 μg/mL. For the co-treatment of L3-1Y and sorafenib, the concentration of sorafenib was fixed at 4 μM, and the concentration of L3-1Y was 0 μg/mL, 0.016 μg/mL, 0.08 μg/mL, 0.4 μg/mL, or 2 μg/m L.
# as §4
# [4] = system: HCC1806 breast cancer cell line; experiment: Cell growth inhibition in HCC1806 breast cancer cell line (CellTiter Glo); format: cell-based; settings: L3-1Y 0-2 μg/mL alone or with sorafenib fixed at 3 μM, 72 hours
# HT29 colon cancer cells [5] = experiment: Cell growth inhibition in HT29 colon cancer cell line (CellTiter Glo); format: cell-based; settings: L3-1Y 0-2 μg/mL alone or with sorafenib fixed at 4 μM, 72 hours
# Method: as §5, with “FBS was” for “FBS”, “HT29 colon” for “EBC1 lung”, “(ATCC, HTB-38)” for “(JCRB, JCRB0820)”, “μg/mL.” for “μg/m L.”
# as §4
Molecule,Tumor Inhibition Rate at 21st day (%; compared to vehicle-treated group (0%)) [1] [%],Tumor Inhibition Rate at 21st day (%; compared to vehicle-treated group (0%)) (HT29 colon cancer cells [2]) [%],"inhibition at 4 µM ([3]; Homo sapiens, MKN-45, single treatment of sorafenib 4 μM (0 μg/mL of L3-1Y), 72 hours, read-out: cell growth inhibition rate) [%]",concentration of IC30 in MKN45 cell line ([3]; MKN45 cell line) [µM],cell growth inhibiting effect (EBC1 lung cancer cells),cell death / cell growth inhibiting effect [4],cell growth inhibiting effect (HT29 colon cancer cells [5]),tumor inhibiting effect (HT29 colon cancer cells [2]; same doses as Table 4),"cell growth inhibiting effect ([3]; L3-1Y 0-2 μg/mL alone or with sorafenib fixed at 4 μM, 72 hours)","cell growth inhibiting effect ([3]; L3-1Y 0.08 μg/mL, alone or with 4 μM sorafenib, 72 hours)"
"CNC(=O)c1cc(Oc2ccc(NC(=O)Nc3ccc(Cl)c(C(F)(F)F)c3)cc2)ccn1 [Sorafenib, 4-[4-[[4-chloro-3-(trifluoromethyl)phenyl]carbamoylamino]phenoxy]-N-methyl-pyridine-2-carboxamide]",24.7,22.1,30,4,no cell growth inhibiting effect,,,,,
B1,36.2,−0.9,,,observed,not observed,not observed,no tumor inhibiting effect,observed,only a little effect
